Test results: publication PMC12140327, “Structural and Biochemical Characterization of a Widespread Enterobacterial Peroxidase Encapsulin” (Advanced Science, 2025)
Values joined by “and” are separate entries in the source; they are usually repeats but may differ in a detail not shown here. Equal values may be shown once. Blank lines part the entries; values can stand above or below the molecule they belong to.

What was measured:
[1] = target: T1, EncDyP (Escherichia coli, UniProt A0A5C9AJY8); assay: ABTS oxidation at […] nm, plate reader; type: biochemical; settings: H2O2 as co-substrate; 50 mM phosphate citrate pH 4.6-7.6; room temperature
T1 construct: gene FPI65_30880; DyP-loaded T=1 encapsulin shell (60 Enc, about 3-5 DyP hexamers per shell); staggered co-expression in E. coli BL21(DE3), DyP in pCDFDuet-1, Enc in pBAD/HisA; no tag stated; DyP C-terminal residue K348; with Type 1 encapsulin shell protein

[2] = target: T1, EncDyP; assay: in-gel peroxidase activity stain (native PAGE, ferricyanide); type: biochemical; settings: H2O2 0.003%; DAB in Tris-saline pH 7.5
[3] = target: encapsulin shell protein (Enc) of the enterobacterial DyP encapsulin operon (E. coli); assay: cryo-EM 2D class averages after shell subtraction; purified EncDyP from a two-gene operon under the T7 promoter
[4] = target: encapsulin shell protein (Enc) of the enterobacterial DyP encapsulin operon (E. coli); assay: cryo-EM 2D class averages after shell subtraction; purified EncDyP from staggered expression of DyP (PT7) and Enc (PBAD)
[5] = target: encapsulin shell protein (Enc) of the enterobacterial DyP encapsulin operon (E. coli); assay: cryo-EM structure; purified EncDyP from staggered co-expression, 2.8 mg/mL in 150 mM NaCl, 20 mM Tris pH 7.5; icosahedral symmetry imposed
[6] = target: free His6-tagged Dye-decolorizing peroxidase (DyP); assay: SEC; Superdex S-200, 150 mM NaCl, 20 mM Tris pH 7.5; heme followed by absorption at 404 nm
[7] = target: free His6-tagged Dye-decolorizing peroxidase (DyP); assay: cryo-EM structure; purified free DyP, 0.5 mg/mL in 150 mM NaCl, 20 mM Tris pH 7.5; D3 symmetry imposed

Molecule: CCn1c(=NN=c2sc3cc(S(=O)(=O)O)ccc3n2CC)sc2cc(S(=O)(=O)O)ccc21 [ABTS]
ABTS oxidation at 420 nm, plate reader [1]: Peroxidase activity increased at a comparable rate for both free and encapsulated DyP

Molecule: Nc1ccc(-c2ccc(N)c(N)c2)cc1N [DAB]
in-gel peroxidase activity stain (native PAGE, ferricyanide) [2]: in‐gel peroxidase activity staining using ferricyanide which confirmed the encapsulation of catalytically active DyP

Molecule: Dye-decolorizing peroxidase (DyP) cargo, co-expressed with Enc and encapsulated (enzyme)
DyP hexamers per shell (hexamer per shell) [3]: < 1
DyP hexamers per shell (DyP hexamers per shell) [4]: 3 and 5

stoichiometry N [5]: 60
Molecule: encapsulin shell protein (Enc) of the enterobacterial DyP encapsulin operon (natural protein)

Molecule: free His6-tagged Dye-decolorizing peroxidase (DyP) (enzyme)
stoichiometry N [6]: 6
stoichiometry N [7]: 6
